Target: Matrix protein-1 (M1) (Influenza A virus) (UniProt B4URD8)
Conditions: low-density aptamer microarray, 50x dilution

## tRNA
  binding signal (fluorescence units): -55

From patent publication US20120295811, “APTAMERS DIRECTED AGAINST THE MATRIX PROTEIN-1 OF TYPE A INFLUENZA VIRUSES AND USES […]” (published 2012)
